Article PMC10397247

Assays:
4H607-bA = target: T1, 4H607-bA; experiment: two-hybrid library CCNG1;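 also: natural log of median RNA to DNA barcode read ratio; higher means stronger binding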
T1 chain: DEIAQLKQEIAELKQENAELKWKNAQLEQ

4H4001-bA = target: T2, 4H4001-bA; experiment: two-hybrid library CCNG1;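 also: natural log of median RNA to DNA barcode read ratio; higher means stronger binding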
T2 chain: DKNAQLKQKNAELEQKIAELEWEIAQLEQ

4H3782-bA = target: T3, 4H3782-bA; experiment: two-hybrid library CCNG1;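 also: natural log of median RNA to DNA barcode read ratio; higher means stronger binding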
T3 chain: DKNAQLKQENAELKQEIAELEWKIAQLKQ

4H918-bA = target: T4, 4H918-bA; experiment: two-hybrid library CCNG1;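 also: natural log of median RNA to DNA barcode read ratio; higher means stronger binding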
T4 chain: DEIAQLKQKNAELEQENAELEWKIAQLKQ

P7bH1 = target: T5, P7bH1; experiment: two-hybrid library CCNG1;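 also: natural log of median RNA to DNA barcode read ratio; higher means stronger binding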
T5 chain: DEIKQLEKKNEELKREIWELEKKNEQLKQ

4H346-bA = target: T6, 4H346-bA; experiment: two-hybrid library CCNG1;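 also: natural log of median RNA to DNA barcode read ratio; higher means stronger binding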
T6 chain: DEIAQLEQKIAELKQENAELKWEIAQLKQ

4H3427-bA = target: T7, 4H3427-bA; experiment: two-hybrid library CCNG1
T7 chain: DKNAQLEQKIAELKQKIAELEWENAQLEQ

4H754-bA = target: T8, 4H754-bA; experiment: two-hybrid library CCNG1; conditions: mean of both orientations
T8 chain: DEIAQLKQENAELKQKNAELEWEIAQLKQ

O15-bN = target: T9, O15-bN; experiment: two-hybrid library CCNG1
T9 chain: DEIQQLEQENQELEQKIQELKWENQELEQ

4H967-bA = target: T10, 4H967-bA; experiment: two-hybrid library CCNG1
T10 chain: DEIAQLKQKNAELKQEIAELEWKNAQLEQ

4H3926-bA = target: T11, 4H3926-bA; experiment: two-hybrid library CCNG1
T11 chain: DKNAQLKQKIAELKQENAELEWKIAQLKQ

4H968-bA = target: T12, 4H968-bA; experiment: two-hybrid library CCNG1
T12 chain: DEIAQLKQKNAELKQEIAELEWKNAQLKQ

4H568-bA = target: T13, 4H568-bA; experiment: two-hybrid library CCNG1
T13 chain: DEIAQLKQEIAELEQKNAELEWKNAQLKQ

4H717-bA = target: T14, 4H717-bA; experiment: two-hybrid library CCNG1
T14 chain: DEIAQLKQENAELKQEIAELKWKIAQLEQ

4H908-bA = target: T15, 4H908-bA; experiment: two-hybrid library CCNG1
T15 chain: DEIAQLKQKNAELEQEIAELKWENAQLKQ

4H575-bA = target: T16, 4H575-bA; experiment: two-hybrid library CCNG1
T16 chain: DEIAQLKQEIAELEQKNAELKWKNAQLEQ

4H855-bA = target: T17, 4H855-bA; experiment: two-hybrid library CCNG1
T17 chain: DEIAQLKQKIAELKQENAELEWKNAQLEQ

4H953-bA = target: T18, 4H953-bA; experiment: two-hybrid library CCNG1
T18 chain: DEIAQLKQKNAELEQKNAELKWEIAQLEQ

4H883-bA = target: T19, 4H883-bA; experiment: two-hybrid library CCNG1
T19 chain: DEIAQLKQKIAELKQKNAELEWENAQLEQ

4H780-bA = target: T20, 4H780-bA; experiment: two-hybrid library CCNG1
T20 chain: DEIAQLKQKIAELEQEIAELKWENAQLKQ

4H454-bA = target: T21, 4H454-bA; experiment: two-hybrid library CCNG1
T21 chain: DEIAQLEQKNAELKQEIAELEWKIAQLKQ

4H3855-bA = target: T22, 4H3855-bA; experiment: two-hybrid library CCNG1
T22 chain: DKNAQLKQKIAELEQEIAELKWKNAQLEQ

4H457-bA = target: T23, 4H457-bA; experiment: two-hybrid library CCNG1
T23 chain: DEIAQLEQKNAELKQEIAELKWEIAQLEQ

4H683-bA = target: T24, 4H683-bA; experiment: two-hybrid library CCNG1
T24 chain: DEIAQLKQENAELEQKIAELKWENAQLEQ

4H797-bA = target: T25, 4H797-bA; experiment: two-hybrid library CCNG1
T25 chain: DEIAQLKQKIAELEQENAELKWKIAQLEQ

4H72-bA = target: T26, 4H72-bA; experiment: two-hybrid library CCNG1
T26 chain: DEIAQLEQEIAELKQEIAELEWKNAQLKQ

4H687-bA = target: T27, 4H687-bA; experiment: two-hybrid library CCNG1
T27 chain: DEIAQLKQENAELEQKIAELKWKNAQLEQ

4H4073-bA = target: T28, 4H4073-bA; experiment: two-hybrid library CCNG1
T28 chain: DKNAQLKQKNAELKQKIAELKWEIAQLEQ

4H43-AA = target: T29, 4H43-AA; experiment: two-hybrid library CCmax; conditions: mean of both orientations
T29 chain: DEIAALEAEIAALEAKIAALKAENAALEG

4H2705-AA = target: T30, 4H2705-AA; experiment: two-hybrid library CCmax
T30 chain: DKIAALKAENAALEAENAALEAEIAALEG

4H3590-AA = target: T31, 4H3590-AA; experiment: two-hybrid library CCmax; conditions: mean of both orientations
T31 chain: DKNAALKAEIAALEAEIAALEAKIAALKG

4H2758-AA = target: T32, 4H2758-AA; experiment: two-hybrid library CCmax; conditions: mean of both orientations
T32 chain: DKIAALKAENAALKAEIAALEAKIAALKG

4H3905-AA = target: T33, 4H3905-AA; experiment: two-hybrid library CCmax; conditions: mean of both orientations
T33 chain: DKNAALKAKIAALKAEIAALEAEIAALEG

4H2873-AA = target: T34, 4H2873-AA; experiment: two-hybrid library CCmax; conditions: mean of both orientations
T34 chain: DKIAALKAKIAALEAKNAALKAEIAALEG

4H3940-AA = target: T35, 4H3940-AA; experiment: two-hybrid library CCmax; conditions: mean of both orientations
T35 chain: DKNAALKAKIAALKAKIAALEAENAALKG

4H2736-AA = target: T36, 4H2736-AA; experiment: two-hybrid library CCmax; conditions: mean of both orientations
T36 chain: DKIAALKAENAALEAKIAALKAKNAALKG

4H816-AA = target: T37, 4H816-AA; experiment: two-hybrid library CCmax; conditions: mean of both orientations
T37 chain: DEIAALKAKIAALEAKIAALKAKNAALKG

O11-AA = target: T38, O11-AA; experiment: two-hybrid library CCmax; conditions: mean of both orientations
T38 chain: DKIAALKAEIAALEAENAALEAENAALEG

4H2985-AA = target: T39, 4H2985-AA; experiment: two-hybrid library CCmax
T39 chain: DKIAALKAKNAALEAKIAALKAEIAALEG

4H3587-AA = target: T40, 4H3587-AA; experiment: two-hybrid library CCmax; conditions: mean of both orientations
T40 chain: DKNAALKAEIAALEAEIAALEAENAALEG

4H3049-AA = target: T41, 4H3049-AA; experiment: two-hybrid library CCmax; conditions: mean of both orientations
T41 chain: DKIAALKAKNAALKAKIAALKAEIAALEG

4H_APH = target: T42, 4H_APH; experiment: two-hybrid library CCmax; conditions: mean of both orientations
T42 chain: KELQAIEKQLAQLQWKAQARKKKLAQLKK

4H87-AA = target: T43, 4H87-AA; experiment: two-hybrid library CCmax; conditions: mean of both orientations
T43 chain: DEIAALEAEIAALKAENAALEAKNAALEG

4H3625-AA = target: T44, 4H3625-AA; experiment: two-hybrid library CCmax; conditions: mean of both orientations
T44 chain: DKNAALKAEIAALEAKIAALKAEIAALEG

4H390-AA = target: T45, 4H390-AA; experiment: two-hybrid library CCmax; conditions: mean of both orientations
T45 chain: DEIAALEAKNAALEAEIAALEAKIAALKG

4H_BCR = target: T46, 4H_BCR; experiment: two-hybrid library CCmax; conditions: mean of both orientations
T46 chain: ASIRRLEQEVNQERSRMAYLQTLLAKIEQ

4H3134-AA = target: T47, 4H3134-AA; experiment: two-hybrid library CCmax; conditions: mean of both orientations
T47 chain: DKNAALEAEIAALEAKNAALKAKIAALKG

O13-AA = target: T48, O13-AA; experiment: two-hybrid library CCmax; conditions: mean of both orientations
T48 chain: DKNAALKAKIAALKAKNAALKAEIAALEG

4H3409-AA = target: T49, 4H3409-AA; experiment: two-hybrid library CCmax; conditions: mean of both orientations
T49 chain: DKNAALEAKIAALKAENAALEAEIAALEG

4H337-AA = target: T50, 4H337-AA; experiment: two-hybrid library CCmax; conditions: mean of both orientations
T50 chain: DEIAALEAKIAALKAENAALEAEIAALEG

4H_GCN4 = experiment: two-hybrid library CCmax; conditions: mean of both orientations
Chain of 4H_GCN4 (chain, as listed by the source): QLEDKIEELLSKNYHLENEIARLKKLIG

GCN2_T = experiment: two-hybrid library CCmax; conditions: mean of both orientations
4H451-AA = target: T51, 4H451-AA; experiment: two-hybrid library CCmax; conditions: mean of both orientations
T51 chain: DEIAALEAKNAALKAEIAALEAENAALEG

4H278-AA = target: T52, 4H278-AA; experiment: two-hybrid library CCmax; conditions: mean of both orientations
T52 chain: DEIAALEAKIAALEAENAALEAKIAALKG

4H384-AA = target: T53, 4H384-AA; experiment: two-hybrid library CCmax; conditions: mean of both orientations
T53 chain: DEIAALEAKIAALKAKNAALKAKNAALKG

4H510-AA = target: T54, 4H510-AA; experiment: two-hybrid library CCmax; conditions: mean of both orientations
T54 chain: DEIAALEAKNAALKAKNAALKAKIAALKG

4H2888-AA = target: T55, 4H2888-AA; experiment: two-hybrid library CCmax; conditions: mean of both orientations
T55 chain: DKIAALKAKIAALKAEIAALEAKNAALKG

4H775-AA = target: T56, 4H775-AA; experiment: two-hybrid library CCmax; conditions: mean of both orientations
T56 chain: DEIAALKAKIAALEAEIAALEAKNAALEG

O14-AA = target: T57, O14-AA; experiment: two-hybrid library CCmax; conditions: mean of both orientations
T57 chain: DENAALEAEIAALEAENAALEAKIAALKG

4H4038-AA = target: T58, 4H4038-AA; experiment: two-hybrid library CCmax; conditions: mean of both orientations
T58 chain: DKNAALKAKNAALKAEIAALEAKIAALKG

DKNAQLEQKIAELKQKIAELEWENAQLEQ [4H3427-bA]
interaction score (4H607-bA): -0.868 | interaction score (4H4001-bA): -0.314 | interaction score (4H3782-bA): -0.499 | interaction score (4H918-bA): -0.926 | interaction score (P7bH1): -0.632 | interaction score (4H346-bA): -1.15 | interaction score (4H3427-bA): 0.0593 | interaction score (4H754-bA): -0.767 | interaction score (O15-bN): -0.0232 | interaction score (4H967-bA): -1.02 | interaction score (4H3926-bA): -0.817 | interaction score (4H968-bA): -0.904 | interaction score (4H568-bA): 0.738 | interaction score (4H717-bA): -1.4 | interaction score (4H908-bA): -0.823 | interaction score (4H575-bA): 0.0418 | interaction score (4H855-bA): -1.16 | interaction score (4H953-bA): -1.25 | interaction score (4H883-bA): -0.625 | interaction score (4H780-bA): -1.09 | interaction score (4H454-bA): -0.617 | interaction score (4H3855-bA): -0.947 | interaction score (4H457-bA): -1.11 | interaction score (4H683-bA): -0.996 | interaction score (4H797-bA): -0.827 | interaction score (4H72-bA): 0.449 | interaction score (4H687-bA): -1.79 | interaction score (4H4073-bA): 0.792

DKIAALKAENAALEAENAALEAEIAALEG [4H2705-AA]
interaction score (4H43-AA): -1.82 | interaction score (4H2705-AA): -1.4 | interaction score (4H3590-AA): -1.6 | interaction score (4H2758-AA): -1.01 | interaction score (4H3905-AA): -1.49 | interaction score (4H2873-AA): -1.27 | interaction score (4H3940-AA): -1.62 | interaction score (4H2736-AA): -1.45 | interaction score (4H816-AA): -1.52 | interaction score (O11-AA): -1.81 | interaction score (4H2985-AA): -0.31 | interaction score (4H3587-AA): -1.78 | interaction score (4H3049-AA): 1.67 | interaction score (4H_APH): -1.6 | interaction score (4H87-AA): -1.62 | interaction score (4H3625-AA): -2.01 | interaction score (4H390-AA): -0.544 | interaction score (4H_BCR): -1.75 | interaction score (4H3134-AA): -0.0637 | interaction score (O13-AA): -1.17 | interaction score (4H3409-AA): -1.62 | interaction score (4H337-AA): -0.896 | interaction score (4H_GCN4): -1.71 | interaction score (GCN2_T): -1.4 | interaction score (4H451-AA): -1.84 | interaction score (4H278-AA): -0.473 | interaction score (4H384-AA): 1.45 | interaction score (4H510-AA): 1.88 | interaction score (4H2888-AA): -1.97 | interaction score (4H775-AA): -1.89 | interaction score (O14-AA): -1.68 | interaction score (4H4038-AA): 0.153
